Assays:
[1] = substrate: N[C@@H](Cc1c[nH]c2ccccc12)C(=O)O; test: (§1) Activity at Aspergillus fumigatus FtmPT1 by HPLC analysis
[2] = substrate: O=C1N[C@@H](Cc2c[nH]c3ccccc23)C(=O)N2CCC[C@@H]12; test: as §1

B1: Tryprostatin B synthase ftmPT1 (Aspergillus fumigatus), Q4WAW7 (protein)
chain: MPPAPPDQKPCHQLQPAPYRALSESILFGSVDEERWWHSTAPILSRLLISSNYDVDVQYKYLSLYRHLVLPALGPYPQRDPETGIIATQWRSGMVLTGLPIEFSNNVARALIRIGVDPVTADSGTAQDPFNTTRPKVYLETAARLLPGVDLTRFYEFETELVITKAEEAVLQANPDLFRSPWKSQILTAMDLQKSGTVLVKAYFYPQPKSAVTGRSTEDLLVNAIRKVDREGRFETQLANLQRYIERRRRGLHVPGVTADKPPATAADKAFDACSFFPHFLSTDLVEPGKSRVKFYASERHVNLQMVEDIWTFGGLRRDPDALRGLELLRHFWADIQMREGYYTMPRGFCELGKSSAGFEAPMMFHFHLDGSQSPFPDPQMYVCVFGMNSRKLVEGLTTFYRRVGWEEMASHYQGNFLANYPDEDFEKAAHLCAYVSFAYKNGGAYVTLYNHSFNPVGDVSFPN
Km [1]: 820 µM
kcat [1]: 0.12 s⁻¹
Km [2]: 55 µM
kcat [2]: 5.57 s⁻¹

Source: ChEMBL document CHEMBL1151808, “Substrate promiscuity of the cyclic dipeptide prenyltransferases from Aspergillus fumigatus ( section sign)” (J Nat Prod, 2009)
